Tests used:
[1] = target: the molecule itself; experiment: AUC; sedimentation velocity, DEC-205 ECD 0.2 mg ml^-1, TBS pH 8.0, 150 mM NaCl, 20 °C, 37,000 RPM
[2] = target: the molecule itself; experiment: AUC; sedimentation velocity, DEC-205 ECD 0.2 mg ml^-1, BIS-TRIS buffer pH 6.0, 150 mM NaCl, 20 °C, 37,000 RPM
[3] = target: the molecule itself; experiment: SEC-MALS; DEC-205 ECD, 50 ul at 1 mg ml^-1, Superdex 200 5/150, TBS (10 mM Tris-HCl pH 8.0, 150 mM NaCl)

B1: soluble DEC-205 ectodomain (ECD), residues 1-1664 (domain or fragment, human, UniProt O60449-1 28-1664, looked up)
chain: SGRAANDPFTIVHGNTGKCIKPVYGWIVADDCDETEDKLWKWVSQHRLFHLHSQKCLGLDITKSVNELRMFSCDSSAMLWWKCEHHSLYGAARYRLALKDGHGTAISNASDVWKKGGSEESLCDQPYHEIYTRDGNSYGRPCEFPFLIDGTWHHDCILDEDHSGPWCATTLNYEYDRKWGICLKPENGCEDNWEKNEQFGSCYQFNTQTALSWKEAYVSCQNQGADLLSINSAAELTYLKEKEGIAKIFWIGLNQLYSARGWEWSDHKPLNFLNWDPDRPSAPTIGGSSCARMDAESGLWQSFSCEAQLPYVCRKPLNNTVELTDVWTYSDTRCDAGWLPNNGFCYLLVNESNSWDKAHAKCKAFSSDLISIHSLADVEVVVTKLHNEDIKEEVWIGLKNINIPTLFQWSDGTEVTLTYWDENEPNVPYNKTPNCVSYLGELGQWKVQSCEEKLKYVCKRKGEKLNDASSDKMCPPDEGWKRHGETCYKIYEDEVPFGTNCNLTITSRFEQEYLNDLMKKYDKSLRKYFWTGLRDVDSCGEYNWATVGGRRRAVTFSNWNFLEPASPGGCVAMSTGKSVGKWEVKDCRSFKALSICKKMSGPLGPEEASPKPDDPCPEGWQSFPASLSCYKVFHAERIVRKRNWEEAERFCQALGAHLSSFSHVDEIKEFLHFLTDQFSGQHWLWIGLNKRSPDLQGSWQWSDRTPVSTIIMPNEFQQDYDIRDCAAVKVFHRPWRRGWHFYDDREFIYLRPFACDTKLEWVCQIPKGRTPKTPDWYNPDRAGIHGPPLIIEGSEYWFVADLHLNYEEAVLYCASNHSFLATITSFVGLKAIKNKIANISGDGQKWWIRISEWPIDDHFTYSRYPWHRFPVTFGEECLYMSAKTWLIDLGKPTDCSTKLPFICEKYNVSSLEKYSPDSAAKVQCSEQWIPFQNKCFLKIKPVSLTFSQASDTCHSYGGTLPSVLSQIEQDFITSLLPDMEATLWIGLRWTAYEKINKWTDNRELTYSNFHPLLVSGRLRIPENFFEEESRYHCALILNLQKSPFTGTWNFTSCSERHFVSLCQKYSEVKSRQTLQNASETVKYLNNLYKIIPKTLTWHSAKRECLKSNMQLVSITDPYQQAFLSVQALLHNSSLWIGLFSQDDELNFGWSDGKRLHFSRWAETNGQLEDCVVLDTDGFWKTVDCNDNQPGAICYYSGNETEKEVKPVDSVKCPSPVLNTPWIPFQNCCYNFIITKNRHMATTQDEVHTKCQKLNPKSHILSIRDEKENNFVLEQLLYFNYMASWVMLGITYRNKSLMWFDKTPLSYTHWRAGRPTIKNEKFLAGLSTDGFWDIQTFKVIEEAVYFHQHSILACKIEMVDYKEEYNTTLPQFMPYEDGIYSVIQKKVTWYEALNMCSQSGGHLASVHNQNGQLFLEDIVKRDGFPLWVGLSSHDGSESSFEWSDGSTFDYIPWKGQTSPGNCVLLDPKGTWKHEKCNSVKDGAICYKPTKSKKLSRLTYSSRCPAAKENGSRWIQYKGHCYKSDQALHSFSEAKKLCSKHDHSATIVSIKDEDENKFVSRLMRENNNITMRVWLGLSQHSVDQSWSWLDGSEVTFVKWENKSKSGVGRCSMLIASNETWKKVECEHGFGRVVCKVPLG
notes: signal peptide in the construct; Monomer at pH 6.0, tetramer at pH 8.0; In both reconstructions only R30 to E1383 (CysR to CTLD8) could be built; CTLD9 and CTLD10 are invisible; also called CD205; source: HEK293S, transient transfection, secreted, purified (FLAG resin, size exclusion)
How did the “stoichiometry N” value [1] turn out when B1 was run?
Its value is 6.

And the “stoichiometry N” value [2]?
The value was 2.

What about the “stoichiometry N” value [3] of the same protein?
Its value is 4.

— publication PMC7948739 (The Journal of Biological Chemistry, 2020)
